Assay results reported in US20250122278A1, “ANTI-INTERLEUKIN-9 ANTIBODY AND USE THEREOF” (GUANGDONG KEGUANDA PHARMACEUTICAL TECHNOLOGY CO., LTD., priority 2022, published 2025).

Tests used:
[1] = target: T1, biotin-conjugated IL-9-Fc (Biotin-IL-9-Fc) (UniProt P15248 19-144, biotin-conjugated (sites not given)); experiment: flow cytometry blocking assay (IL-9-IL-9R blocking determination): serially diluted antibody against the binding of Biotin-IL-9-Fc to 293-IL-9R cells (IL-9R), MFI; unit taken from the x axis, the table prints none
T1 construct: range 19-144; also called Fc-IL-9 recombinant protein; Fc-IL-9; not shown: Fc tag (Fc2 in the vector name pLVX-Fc2-IL9 (19-144)-Puro)

[2] = target: T2, IL-9-His recombinant protein (UniProt P15248 19-144); experiment: ELISA on coated IL-9-His, OD450; unit taken from the x axis, the table prints none
T2 construct: range 19-144; used as coating antigen in the ELISAs; also called IL9 (19-144)-His; not shown: His tag, C-terminal by the vector name

[3] = target: T2, IL-9-His recombinant protein; experiment: ELISA on IL-9-His, 293F culture supernatant, antibody concentration 1 µg/mL
Description: (§1) ELISA was conducted according to a standard protocol to determine the affinity of a purified antibody for the IL-9-His recombinant protein. In short, the IL-9-His recombinant protein was diluted with sterile PBS and added at 100 μL/well to a 96-well plate. The plate was incubated at 4° C. overnight and then blocked with a blocking buffer. 100 μL of a purified anti-IL-9 antibody serially diluted was added to the plate, and the plate was incubated for 1 h at room temperature. PBS was added to a control well. The plate was washed with PBST 3 times. Then 100 μL of horseradish peroxidase (HRP)-labeled anti-mouse IgG H&L (BIODRAGON, CAT #BF03001) was added, and the plate was incubated for 1 h at room temperature. The plate was washed with PBST 3 times. Then a chromogenic reaction was conducted with a 3,3′,5,5′-tetramethylbenzidine (TMB) chromogenic solution at room temperature. An OD value in each well was read by a microplate reader. Data was processed with PRISM GraphPad, and curves were plotted. The EC₅₀ value for each candidate antibody was calculated.

[4] = target: T2, IL-9-His recombinant protein; experiment: BLI (ForteBio), antibody on Protein A sensor, antigen 7.81-125 nM in solution
Excerpt: The affinity of a humanized antibody was detected by ForteBio (BLI). […] An affinity detection procedure was as follows: equilibration for 60 s, binding for 180 s, and dissociation for 180 s.

[5] = target: T2, IL-9-His recombinant protein; experiment: ELISA on IL-9-His, 293F culture supernatant, antibody concentration 1 µg/mL (second well)
Description: as §1

[6] = target: T1, biotin-conjugated IL-9-Fc …; experiment: flow cytometry blocking assay (IL-9-IL-9R blocking determination): serially diluted chimeric antibody against the binding of Biotin-IL-9-Fc to 293-IL-9R cells (IL-9R), MFI; unit taken from the x axis, the table prints none
Description: The plate was washed with PBS once. […] Washing was conducted with PBS, and then resuspension was conducted with PBS. Flow cytometry was conducted.

[7] = target: T1, biotin-conjugated IL-9-Fc …; experiment: flow cytometry blocking assay (IL9-IL9R blocking determination): serially diluted antibody against the binding of Biotin-IL-9-Fc to 293-IL-9R cells (IL-9R), MFI; unit taken from the x axis, the table prints none
[8] = target: T2, IL-9-His recombinant protein; experiment: ELISA on IL-9-His, 293F culture supernatant, antibody concentration 2 µg/mL
Description: as §1

[9] = target: T2, IL-9-His recombinant protein; experiment: ELISA on IL-9-His, 293F culture supernatant, antibody concentration 2 µg/mL (second well)
Description: as §1

T2 sequence (P15248 19-144 limits assumed, form in doubt): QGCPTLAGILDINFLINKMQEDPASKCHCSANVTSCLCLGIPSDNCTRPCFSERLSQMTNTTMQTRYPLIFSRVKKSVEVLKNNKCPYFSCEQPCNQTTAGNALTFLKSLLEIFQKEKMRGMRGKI
T1 sequence (P15248 19-144 limits assumed, form in doubt): as above

Binder | EC50 [1] [µg/mL] | EC50 [2] [µg/mL] | ELISA OD450 [3] [OD450] | Kd [4] [nM] | koff [4] [s⁻¹] | kon [4] [M⁻¹ s⁻¹] | ELISA OD450 [5] [OD450] | EC50 [6] [µg/mL] | EC50 [7] [µg/mL] | ELISA OD450 [8] [OD450] | ELISA OD450 [9] [OD450]
7F3com (antibody, V domains shown, also called IL-9 positive control antibody; IL-9 positive antibody) VH: QVQLVQSGAEVKKPGSSVKVSCKASGGTFSYYWIEWVRQAPGQGLEWMGEILPGSGTTNPNEKFKGRVTITADESTSTAYMELSSLRSEDTAVYYCARADYYGSDYVKFDYWGQGTLVTVSS VL: DIQMTQSPSSLSASVGDRVTITCKASQHVITHVTWYQQKPGKAPKLLIYGTSYSYSGVPSRFSGSGSGTDFTLTISSLQPEDFATYYCQQFYEYPLTFGGGTKVEIK | 10.2 | 0.0459 |  |  |  |  |  |  |  |  | 
38-D8-C7-G9 chimeric antibody (CA1) (antibody, V domains shown, also called CA1 antibody; human-mouse chimeric antibody CA1) VH: EVQLKQSGAELMKPGASVKLSCKATGYTFTGYWIEWVKLRPGHGLEWIGEILPGSGSTNYNEEFKGKATFTADTSSNTAYMQLNSLTTEDSAIYYCARRTYYYGIPEDYWGQGTSVTVSS VL: DIVMTQSQKFMSTSVGDRVSVTCKASQNVGTNVAWHQQKPGQSPKPLIYSASYRYSGVPDRFTGSGSGTDFTLTISNVQSEDLAEYFCQQYNSYPLTFGAGTKLELK |  | 0.022 | 2.43 | 0.44 | 0.000934 | 2.13e+06 | 2.55 | 5.96 | 2.07 | 2.48 | 2.6
31-D6-B8-B8 chimeric antibody (CA2) (antibody, V domains shown) VH: EVQLKESGPGLVKPSQSLSLTCSVTGYSSTSGYYWNWIRQFPGNKLEWMGYIRYDGSSNHNPSLKNRISITRDTSKNQFFLKLNSVTTEDTATYYCASYGITYDAMDYWGQGTSVTVSS VL: DIQLTQPPASLSASVGETVTITCRASENIDSYLAWYQQKQGKSPQLLVYAATLLADGVPSRFSGSGSGTQYSLKINSLQSEDVARYYCQHYYSTPWTFGGGTKLELK |  |  | 2.66 |  |  |  | 2.62 | 15.8 |  | 2.49 | 2.46
